Laboratory results from paper PMC8631645, “Avidity observed between a bivalent inhibitor and an enzyme monomer with a single active site” (PLoS ONE, 2021).

Tests used:
[1] = biological target: bovine trypsin (bovine); assay: enzyme activity titration; pre-titrated bovine trypsin (9 uL, 30 uM) mixed with six dilutions of APPI monomer or dimer; residual activity on 100 uM L-BAPA, 100 mM Tris, 5 mM CaCl2, pH 8.0, 37 C; compared with concentration by absorbance at 280 nm; conditions: both partners purified
[2] = biological target: T1, mesotrypsin (human, UniProt P35030 81-304); assay: enzyme inhibition kinetics; mesotrypsin 0.25 nM, Z-GPR-pNA 5-250 uM, APPI monomer 0-400 nM or dimer inhibitor units 0-96 nM, 37 C, 100 mM Tris, 1 mM CaCl2, pH 8.0; global fit to the classic competitive inhibition equation; for the dimer an apparent constant of a single inhibitory unit; conditions: both partners purified
T1 construct: also called recombinant human mesotrypsin
T1 sequence (looked up): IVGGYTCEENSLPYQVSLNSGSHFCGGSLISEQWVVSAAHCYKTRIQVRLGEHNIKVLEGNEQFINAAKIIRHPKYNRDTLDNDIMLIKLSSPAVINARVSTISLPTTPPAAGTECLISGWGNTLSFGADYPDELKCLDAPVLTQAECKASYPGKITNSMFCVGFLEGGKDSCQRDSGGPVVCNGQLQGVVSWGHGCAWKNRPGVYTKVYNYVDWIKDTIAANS

stoichiometry N [1]: 2 trypsin per APPI dimer
Ki [2]: 36.1 nM
B1: dimeric amyloid precursor protein inhibitor (APPI homodimer, two APPI units in tandem joined by a GGGGSx3 linker) (other)
chain: EVCSEQAETGPCRAMISRWYFDVTEGKCAPFFYGGCGGNRNNFDTEEYCMAVCGSAMGGGGSGGGGSGGGGSEVCSEQAETGPCRAMISRWYFDVTEGKCAPFFYGGCGGNRNNFDTEEYCMAVCGSAM
modifications: three disulfides per Kunitz unit. Limits from the printed primers (text says 3L33 residues 4-55 = 290-341). GGGGSx3 linker kept between units. Possible restriction-site residues at the junction and …
